What was measured:
Experiment in all cases: ITC
[1] = target: Mus musculus core RBPJ, residues 53-474 (Mus musculus, UniProt P31266 53-474)
RBPJ (53-474) F261A = RBPJ (53-474) F261A (Mus musculus, UniProt P31266 53-474, F261A)
RBPJ (53-474) L388A = RBPJ (53-474) L388A (Mus musculus, UniProt P31266 53-474, L388A)
RBPJ (53-474) A284V = RBPJ (53-474) A284V (Mus musculus, UniProt P31266 53-474, A284V)
Sequence of RBPJ (53-474) A284V (P31266 53-474 A284V): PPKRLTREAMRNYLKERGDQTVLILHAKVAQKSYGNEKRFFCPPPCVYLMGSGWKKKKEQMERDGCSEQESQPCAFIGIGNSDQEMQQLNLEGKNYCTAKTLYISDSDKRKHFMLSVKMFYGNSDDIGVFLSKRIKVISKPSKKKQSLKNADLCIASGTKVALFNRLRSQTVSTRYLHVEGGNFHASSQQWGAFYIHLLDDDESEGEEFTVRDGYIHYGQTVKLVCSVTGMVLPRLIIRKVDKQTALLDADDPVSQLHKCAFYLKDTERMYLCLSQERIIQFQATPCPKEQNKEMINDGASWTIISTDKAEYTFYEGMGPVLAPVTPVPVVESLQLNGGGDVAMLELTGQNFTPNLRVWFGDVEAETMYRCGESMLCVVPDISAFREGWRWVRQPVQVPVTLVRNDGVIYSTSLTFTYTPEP

Sequence of Mus musculus core RBPJ, residues 53-474 (P31266 53-474): as the sequence (P31266 53-474 A284V) above, with V232A counted along it
Sequence of RBPJ (53-474) F261A (P31266 53-474 F261A): as the sequence (P31266 53-474 A284V) above, with F209A, V232A counted along it
Sequence of RBPJ (53-474) L388A (P31266 53-474 L388A): as the sequence (P31266 53-474 A284V) above, with V232A, L336A counted along it

B1: SMT3-SHARP, residues 2776-2833 (RBPJ-interacting region) (domain or fragment, UniProt Q96T58 2802-2859, looked up)
chain: SGAGLRVNTSEGVVLLSYSGQKTEGPQRISAKISQIPPASAMDIEFQQSVSKSQVKPD
Which results are given for B1?
Kd [1]: ~5 nM; stoichiometry N [1]: 1; fold reduction in binding against native RBPJ (RBPJ (53-474) F261A): ~45 fold; fold reduction in binding against native RBPJ (RBPJ (53-474) L388A): ~70 fold; fold reduction in binding against native RBPJ (RBPJ (53-474) A284V): ~50 fold

B2: SMT3-SHARP (2776-2833) I2811A (domain or fragment, UniProt Q96T58 2802-2859, looked up)
chain: SGAGLRVNTSEGVVLLSYSGQKTEGPQRISAKISQAPPASAMDIEFQQSVSKSQVKPD
For B2, which “fold reduction in binding against native SHARP” value [1] is on record?
The value was greater than 60 fold.

B3: SMT3-SHARP (2776-2833) K2807A (domain or fragment, UniProt Q96T58 2802-2859, looked up)
chain: SGAGLRVNTSEGVVLLSYSGQKTEGPQRISAAISQIPPASAMDIEFQQSVSKSQVKPD
Which “fold reduction in binding against native SHARP” value [1] does the source give for B3 here?
The value was roughly 6 fold.

B4: SMT3-SHARP (2776-2833) L2791A (domain or fragment, UniProt Q96T58 2802-2859, looked up)
chain: SGAGLRVNTSEGVVLASYSGQKTEGPQRISAKISQIPPASAMDIEFQQSVSKSQVKPD
With B4 as the binder, how does the “fold decrease in binding against native SHARP” value [1] read?
The value was greater than 350 fold.

B5: SMT3-SHARP (2776-2833) V2789A (domain or fragment, UniProt Q96T58 2802-2859, looked up)
chain: SGAGLRVNTSEGVALLSYSGQKTEGPQRISAKISQIPPASAMDIEFQQSVSKSQVKPD
Which “fold reduction in binding against native SHARP” value [1] does the source give for B5 here?
Its value is greater than 10 fold.

B6: SMT3-SHARP (2776-2833) Y2793A (domain or fragment, UniProt Q96T58 2802-2859, looked up)
chain: SGAGLRVNTSEGVVLLSASGQKTEGPQRISAKISQIPPASAMDIEFQQSVSKSQVKPD
For B6, which “fold reduction in binding against native SHARP” value [1] is on record?
Its value is greater than 20 fold.

From doi:10.1101/273615 (bioRxiv, 2018)
